This passage reports Kd results from US20180355012A1.

Assay [1] has as its target HLA-A2/… pMHC complex (NY-ESO-1 tumor specific antigen). Kind of assay: BLI (forteBIO Oke), biotinylated pMHC on SA sensor, soluble TCR in solution, 1:1 fit.
Assay [2] addresses HLA-B4405: … pMHC complex.
For assay [3], the target named is HLA-A1: … pMHC complex (MageA3 tumor specific antigen). Kind of assay: BLI (forteBIO Oke), biotinylated pMHC on SA sensor, soluble TCR in solution, 1:1 fit.

In turn, “1G4 TCR with an artificial interchain disulfide bond between position 53 of TRAC*01 exon 1 and position 54 of TRBC1*01 or TRBC2*01 exon 1” registered a dissociation constant (Kd) in assay [1] of 6.96 µM.

For “LC13 TCR with an artificial interchain disulfide bond between position 10 of TRAC*01 exon 1 and posi”, in assay [2], the Kd amounted to 10 µM.

In the case of “MGA3 TCR with an artificial interchain disulfide bond between position 10 of TRAC*01 exon 1 and position 20 of TRBC1*01 or TRBC2*01 exon 1”, the dissociation constant Kd in assay [3] stood at 3.45 µM.

Take “MGA3 TCR with an artificial interchain disulfide bond between position 53 of TRAC*01 exon 1 and position 54 of TRBC1*01 or TRBC2*01 exon 1”: in assay [3], the Kd was 1.42 µM.

Consider “MGA3 TCR with an artificial interchain disulfide bond between position 89 of TRAC*01 exon 1 and position 19 of TRBC1*01 or TRBC2*01 exon 1”, for which, in assay [3], the dissociation constant Kd was found to be 2.04 µM.
